Test results from US20250092146A1, “ANTI-CCR8 ANTIBODIES, CONJUGATES, AND USES THEREOF” (Abilita Bio, Inc., priority 2023, published 2025).

Legend:
hCCR8 [1] = target: T1, hCCR8 (Homo sapiens, UniProt P51685); experiment: Flow cytometry binding of VHH-Fc fusion antibodies to hCCR8 on stably transfected HEK293 cells; settings: Table 11
T1 construct: expressed in transfected cells
Method: VHH-Fc fusion antibodies were evaluated for their ability to bind to hCCR8 on stably transfected HEK293 cells by means of flow cytometry. Cells were incubated with different concentrations of the bivalent VHH-Fc fusions for 60 minutes at 4° C., followed by two washes with FACS buffer, followed by 30 minutes incubation at 4° C. with the Zenon R-Phycoerythrin Anti-human IgG (ThermoFisher Scientific, #Z-25455), and two additional washing steps. Data were plotted and fit using GraphPad Prism software. EC50 and Bmax values individual antibodies were calculated from the resulting dose-response curves. Bivalent VHH-Fc fusions (Seq ID NOs: 31, 33, and 87-103) of 19 different VHH domains (SEQ ID NOs: 27, 28, and 70-86) were tested for cell binding and results are shown in Table 7. […]
VHH-Fc fusion DNA constructs were then generated comprising encoding humanized VHH sequences (SEQ ID NOs: 106-111) fused in frame to the human IgG1 (SEQ ID NO: 34) directly to the short hinge sequence in the pFuse expression vector, and were expressed, purified and analyzed for binding to HEK293 cells expressing human CCR8 as in Example 5. Binding curves for VHH-Fc antibodies comprised of parental VHH-1 and the humanized VHH derivatives VHH-1.2-Fc and VHH-1.3-Fc are shown in FIG. 9A. Binding curves for VHH-Fc antibodies comprised of parental VHH-2 and the humanized VHH derivatives VHH-2-Fc, VHH-2.2-Fc and VHH-2.3-Fc, are shown in FIG. 9B. Cell binding EC50 values, normalized Bmax (relative to respective parental clone) data and humanizing mutations are shown in Table 10 below.
Approaches such as in vitro affinity maturation and rational mutagenesis can be performed to regain binding affinity and/or stability lost through humanization. In vitro affinity maturation generally involves building and amino acid substitution library where amino acid positions are varied across the CDRs and/or framework at a defined set of positions using sets of amino acids chosen to introduce new chemical diversity. The paratope residues within the CDR regions are of course key to antigen binding and care must be taken not to disrupt important structures while attempting to evolve improve antibody behavior. One approach to identify positions that are important to the maintenance of binding properties is to perform paratope mapping using single scanning alanine substitutions across antibody CDR regions. In this approach, residues that are critical to the maintenance of antibody binding to the antigen can be identified and at the same time permissive sites can be identified where it may be possible to make substitutions of other amino acids desirable for subsequent affinity maturation library construction. Site directed mutagenesis was used to make single alanine substitutions at each residue in the CDRs of VHH-1 (SEQ ID NO: 27) and VHH-2 (SEQ ID NO: 28). Changes in VHH-1 CDR amino acids to alanine are indicated in Table 11 (SEQ ID NOs: 112-137) and for VHH-2 CDRs (SEQ ID NO: 138-162) in Table 12. Mutation positions and residue changes to alanine with respect to the in the parental VHH sequences are referenced by their IMGT position. VHH domains containing the indicated modified CDR-1, CDR-2 or CDR-3 domains were used to construct Fc fusions by direct grafting to the short hinge of the human Fc domain (SEQ ID NO: 34). VHH-Fc constructs were expressed, purified and analyzed for binding to HEK293 cells expressing hCCR8 and the results are reported in Table 11 and Table 12. EC50 values are reported for each Fc fusion antibody containing a modified CDR, along with its respective Bmax value normalized to the to the matched wild type VHH-1-Fc or VHH-2-Fc fusion antibody.

[2] = target: T2, HuT-78 cells that naturally express human CCR8 (Homo sapiens, UniProt P51685); experiment: Flow cytometry binding of yeast-display optimized VHH-Fc antibodies to HuT-78 cells; settings: Table 13
T2 construct: HuT-78 cells that naturally express human CCR8 were used as target cells; endogenous in cells; host or cells: HuT-78
T2 sequence (P51685 whole entry): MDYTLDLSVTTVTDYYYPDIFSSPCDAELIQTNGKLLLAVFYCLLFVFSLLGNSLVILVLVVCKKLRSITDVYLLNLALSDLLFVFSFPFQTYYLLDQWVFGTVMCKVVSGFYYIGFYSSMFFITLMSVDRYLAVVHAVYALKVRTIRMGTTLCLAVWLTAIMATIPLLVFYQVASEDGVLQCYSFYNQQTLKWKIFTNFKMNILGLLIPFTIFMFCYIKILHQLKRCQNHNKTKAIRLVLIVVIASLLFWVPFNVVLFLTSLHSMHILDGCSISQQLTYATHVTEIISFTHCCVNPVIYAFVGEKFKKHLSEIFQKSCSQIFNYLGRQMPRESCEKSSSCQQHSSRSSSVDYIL
From the text: Top VHH sequences were chosen from the FACS sorted populations based on an analysis of improved binding performance relative to the parental sequences and evidence of sequence enrichment by NGS. Candidate VHH were then cloned as VHH-Fc fusions to the short hinge of the IgG1 Fc domain (SEQ ID NO: 34), expressed in HEK293 cells as described earlier and purified for binding evaluation. Bmax values are shown as normalized to VHH-1 or VHH-2 depending on the clone family. […] Mutations are referenced by position according to the IMGT definition.

hCCR8 [3] = target: T1, hCCR8; experiment: Flow cytometry binding of purified VHHs to HEK293 cells expressing hCCR8; settings: monovalent VHH, FIG. 1
Method: Recombinant cells expressing hCCR8 were resuspended to a final concentration of 1.0×10^6 cells/ml in FACS buffer. Surface expression of hCCR8 on transiently transfected HEK293 cells was confirmed by flow cytometry of HEK293 cells stained with PE anti-hCCR8 (Clone 433H, BD Biosciences, #566897) antibody. Dilutions of purified VHHs were incubated with cells for 60 min. Individual samples were distributed into 96-well v-bottom plates and incubated for one hour at 4° C. Bound VHH were then detected with an anti-VHH specific antibody (Goat anti-alpaca VHH, Jackson ImmunoResearch, #128-605-232). […] Binding was determined in parallel on HEK293 cells stably expressing the closely related receptor hCCR7 (SEQ ID NO: 41), as control for binding specificity.

T1 sequence (P51685 whole entry, the tested form may be a part): as the sequence (P51685 whole entry) above

B1: VHH-1: llama anti-hCCR8 VHH, SEQ ID NO: 27; in Tables 11 and 13 tested as human IgG1 Fc fusion (protein)
VHH: QVQLQESGGGLVQAGGSLRLSCVASGSTSSIRRIGWYRQAPGKQRELVARFSSGGGTNYADFVKGRFTISGDNAKNTMYLQMNSLKPEDTAVYYCSARRLLGTSRVDYWGQGTQVTVSSHHHHHH
modifications: left off: small tags and cut ends
EC50 (hCCR8 [1]; VHH-1 CDR alanine mutants as human Fc fusions, HEK293 hCCR8): 1.73 nM
% Bmax (hCCR8 [1]; normalized to wild type VHH-1-Fc): 100%
EC50 ([2]; clones tested as VHH-Fc fusions (human IgG1 Fc), HuT-78 cells): 2.56 nM
Normalized Bmax (%) ([2]; normalized to VHH-1 or VHH-2 depending on clone family): 100.0%
binding specificity hCCR8 vs human CCR7 (hCCR8 [3]): specific binding to hCCR8 overexpressed in HEK293 cells and not to human CCR7
